Assay results from patent CN1869207A (INST OF BIOPHYSICS CAS, dated 2006).
“And” between values parts separate entries of the source, which are not always exact repeats. Equal entries are not always repeated.

B1: 抗MIF单链抗体10C3scFV (scFv)
scFv: QVQLEESGGALVKPGGSLKLSCAASGFTFSTYAMSWVRQTPEKRLEWVATISSGGDYTHYPDSVKGRFTISRDNARNTLYLQMSSLRSEDTAMFYCARPYYGSSYWFYDVWGAGTTVTVSSGSSGSGSSGSGSSGSDIVLTQTPVSIIASRGEKVTITCRARSSISSTYLHWYQQKPGSSPKLLIYRTSILASGVLDSFSGSGSETSDTLTISCMQDEVAATYYCQQGSSSPLTFGAGTKLELKR
notes: Heavy and light variable regions joined by a 15-residue Gly/Ser-rich linker; Expressed from pET-26b in BL21 with a 6xHis tag
B2: 杂交瘤细胞株10C3 CGMCC No.1717分泌的单克隆抗体 (antibody, mouse IgG2b, V domains shown)
VH: QVQLEESGGALVKPGGSLKLSCAASGFTFSTYAMSWVRQTPEKRLEWVATISSGGDYTHYPDSVKGRFTISRDNARNTLYLQMSSLRSEDTAMFYCARPYYGSSYWFYDVWGAGTTVTVSS
VL: DIVLTQTPVSIIASRGEKVTITCRARSSISSTYLHWYQQKPGSSPKLLIYRTSILASGVLDSFSGSGSETSDTLTISCMQDEVAATYYCQQGSSSPLTFGAGTKLELKR
notes: the mouse constant regions are not; Hybridoma supernatant was used in the ELISA and ascites-purified antibody in the cell assays; also called 10C3Ab; anti-MIF
B3: 抗MIF的Fab片段10C3Fab (Fab, V domains shown)
VH: QVQLEESGGALVKPGGSLKLSCAASGFTFSTYAMSWVRQTPEKRLEWVATISSGGDYTHYPDSVKGRFTISRDNARNTLYLQMSSLRSEDTAMFYCARPYYGSSYWFYDVWGAGTTVTVSS
VL: DIVLTQTPVSIIASRGEKVTITCRARSSISSTYLHWYQQKPGSSPKLLIYRTSILASGVLDSFSGSGSETSDTLTISCMQDEVAATYYCQQGSSSPLTFGAGTKLELKR
B4: 人-鼠嵌合抗体ch-10C3 (antibody, V domains shown)
VH: QVQLEESGGALVKPGGSLKLSCAASGFTFSTYAMSWVRQTPEKRLEWVATISSGGDYTHYPDSVKGRFTISRDNARNTLYLQMSSLRSEDTAMFYCARPYYGSSYWFYDVWGAGTTVTVSS
VL: DIVLTQTPVSIIASRGEKVTITCRARSSISSTYLHWYQQKPGSSPKLLIYRTSILASGVLDSFSGSGSETSDTLTISCMQDEVAATYYCQQGSSSPLTFGAGTKLELKR

What was measured:
[1] = target: T1, 大肠杆菌表达的GST-MIF重组蛋白 (human, UniProt P14174 1-115); assay: ELISA by the method of Example 1 (coated GST-MIF; concentration at 50% of the maximal reading)
T1 construct: Coating antigen (10 ug/ml) of the ELISA that gave all the dissociation constants; GST is placed N-terminal by the name GST-MIF; also called 人MIF; not shown: GST tag and vector-encoded residues from pET-41a
T1 sequence (looked up): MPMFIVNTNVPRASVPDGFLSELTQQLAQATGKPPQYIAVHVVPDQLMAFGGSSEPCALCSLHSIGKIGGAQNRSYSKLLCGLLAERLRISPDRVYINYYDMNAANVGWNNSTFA

[2] = target: T1, 大肠杆菌表达的GST-MIF重组蛋白; assay: ELISA on coated GST-MIF (10 ug/ml); antibody concentration at 50% of the maximal reading is taken as the dissociation constant

Binder	Kd [1] [nM]	Kd [2]
B1	30	–
B2	–	3 nM and 0.48 µg/mL
B3	10	–
B4	3	–
